Measured values: publication PMC11375530, “The 8‐oxoguanine DNA glycosylase‐synaptotagmin 7 pathway increases extracellular vesicle release and promotes tumour metastasis during oxidative stress”

Molecular target: OGG1 (8-oxoguanine DNA glycosylase) (UniProt O15527 1-345)
Assay: EMSA; EMSA: DNA-binding buffer (composition not given), 10 min on ice then 10 min at 37 C, 7% native PAGE in 1x TBE; pull-down: 4 C, 12 h, 1 mM PMSF, PBS washes
Conditions: protein: commercial; label: 5'-FAM on strand 2; blunt

OGG1 (8-oxoguanine DNA glycosylase), sequence (O15527 whole entry): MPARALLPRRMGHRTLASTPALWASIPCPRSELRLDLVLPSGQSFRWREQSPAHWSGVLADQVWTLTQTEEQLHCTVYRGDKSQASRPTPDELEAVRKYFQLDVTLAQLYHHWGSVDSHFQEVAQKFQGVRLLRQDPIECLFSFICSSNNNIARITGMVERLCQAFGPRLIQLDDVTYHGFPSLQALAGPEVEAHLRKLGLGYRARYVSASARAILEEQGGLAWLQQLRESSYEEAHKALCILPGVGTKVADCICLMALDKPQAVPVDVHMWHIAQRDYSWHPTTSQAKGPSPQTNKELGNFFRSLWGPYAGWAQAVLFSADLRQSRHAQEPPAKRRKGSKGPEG

B1: 8-oxoG-SYT7 (FAM) (dsDNA)
DNA 1: CGGGCGGGCGGGAGGGCTGGCGGGCGGCCCCC
DNA 2: GGGGGCCGCCCGCCAGCCCTCCCGCCCGCCCG
modifications: 8-oxoG at position 12 of strand 1 (printed ...CGGoGAGGG...)
binding result: binds
